Results as given in paper PMC6345952, “Novel pseudo-aspartic peptidase from the midgut of the tick Rhipicephalus microplus” (Scientific Reports, 2019).

Target: T1, Rhipicephalus microplus pseudo-aspartic peptidase wild type (Rhipicephalus microplus, UniProt A0A411AQW7 21-361)
T1 construct: RmPAP, pseudo-aspartic peptidase of Rhipicephalus microplus (GenBank MH427522); mature RmPAP (R21-K361) without the putative signal peptide M1-A20; lacks the second catalytic Asp (Pro242); Cloned into pET14b with an N-terminal His tag; the primers that fix the construct's limits are in Sup; also called RmPAPWT; RmPAP
T1 sequence: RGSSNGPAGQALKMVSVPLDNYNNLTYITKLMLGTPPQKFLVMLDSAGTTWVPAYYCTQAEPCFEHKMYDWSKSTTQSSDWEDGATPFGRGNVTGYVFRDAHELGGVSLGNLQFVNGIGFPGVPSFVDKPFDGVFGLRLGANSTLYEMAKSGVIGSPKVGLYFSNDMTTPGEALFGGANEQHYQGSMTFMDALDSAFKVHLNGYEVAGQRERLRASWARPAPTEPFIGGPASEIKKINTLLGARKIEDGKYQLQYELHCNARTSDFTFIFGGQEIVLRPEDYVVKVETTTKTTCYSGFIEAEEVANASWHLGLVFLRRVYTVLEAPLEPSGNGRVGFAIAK
Experiment: SPR; Biacore T-200; bovine hemoglobin immobilised on a CM5 chip (FC 2) in acetate buffer pH 5.5, BSA on FC 1 as reference; increasing concentrations of RmPAPWT injected in 10 mM phosphate-citrate buffer, pH 4, 0.15 M NaCl, 20 uL/min; steady-state response (FC2 - FC1) fitted
Details: both partners purified

B1: bovine hemoglobin (complex)
chain 1: not shown
chain 2: not shown
notes: hemoglobin alpha chain, bovine; hemoglobin beta chain, bovine; the heme groups are not written
Kd: 33.5 nM
